Reference: US20120171195A1

Key:
HLA-B*4403 (human) = test: Luminex beads; MAb 1/200; competitor rHLA-E
HLA-Cw*1502 (human) = test: Luminex beads; MAb 1/200; competitor rHLA-E
HLA-Cw*0702 (human) = HLA-Cw*0702 (human) (UniProt P10321); test: Luminex beads; MAb 1/200; competitor rHLA-E
HLA-Cw*0501 (human) = test: Luminex beads; MAb 1/200; competitor rHLA-E
HLA-B*4402 (human) = test: Luminex beads; MAb 1/200; competitor rHLA-E
HLA-B*4701 (human) = test: Luminex beads; MAb 1/200; competitor rHLA-E
HLA-B*5201 (human) = test: Luminex beads; MAb 1/200; competitor rHLA-E
HLA-Cw*0302 (human) = HLA-Cw*0302 (human) (UniProt P10321); test: Luminex beads; MAb 1/400; PBS only
HLA-Cw*0801 (human) = HLA-Cw*0801 (human) (UniProt P10321); test: Luminex beads; MAb 1/400; PBS only
HLA-Cw*1802 (human) [1] = target: HLA-Cw*1802 (human) (UniProt P10321); test: Luminex beads; MAb 1/400; PBS only
HLA-Cw*1701 (human) = test: Luminex beads; MAb 1/800; competitor IgG-free serum
HLA-B*4002 (human) = HLA-B*4002 (human) (UniProt P01889); test: as above
HLA-B*0801 (human) = HLA-B*0801 (human) (UniProt P01889); test: as above
HLA-Cw*1402 (human) = HLA-Cw*1402 (human) (UniProt P10321); test: as above
HLA-B*1402 (human) = test: as above
HLA-B*1801 (human) = test: as above
HLA-B*2708 (human) = HLA-B*2708 (human) (UniProt P01889); test: as above
HLA-B*5801 (human) = test: as above
HLA-B*5101 (human) = test: as above
HLA-B*3701 (human) = test: as above
HLA-Cw*1802 (human) [2] = target: HLA-Cw*1802 (human) (UniProt P10321); test: as above
HLA-B*6701 (B67) (human) = HLA-B*6701 (B67) (human) (UniProt P01889); test: Luminex single-antigen beads; rank of MEM-E/02 reactivity among HLA-Ia alleles
[3] = target: HLA-Cw*1701 (Cw17) (human); test: as above
HLA-A*2501 (A25) (human) = test: as above
HLA-B*5001 (B50) (human) = test: as above
HLA-B*1801 (B18) (human) = test: as above
[4] = target: HLA-Cw*1203 (Cw12) (human) (UniProt P10321); test: as above
HLA-B*1401 (B64) (human) = HLA-B*1401 (B64) (human) (UniProt P01889); test: as above
HLA-A*2601 (A26) (human) = test: as above
HLA-A*3201 (A32) (human) = test: as above
HLA-B*1516 (B63) (human) = test: as above
HLA-A*2403 (A24) (human) = test: as above
HLA-B*4403 (B44) (human) = test: as above
[5] = target: HLA-Cw*1502 (Cw15) (human); test: as above
[6] = target: HLA-Cw*0401 (Cw4) (human); test: as above
[7] = target: HLA-Cw*0801 (Cw8) (human) (UniProt P10321); test: as above
HLA-B*0801 (B8) (human) = HLA-B*0801 (B8) (human) (UniProt P01889); test: as above
HLA-A*2901 (A29) (human) = HLA-A*2901 (A29) (human) (UniProt P04439); test: as above
HLA-B*2708 (B27) (human) = HLA-B*2708 (B27) (human) (UniProt P01889); test: as above
HLA-B*3801 (B38) (human) = test: as above
HLA-B*5901 (B59) (human) = test: as above
HLA-B*1513 (B77) (human) = test: as above

Q: Which results are given for “murine monoclonal antibody (MAb) MEM-E/02”?
A: MFI (HLA-B*4403 (human)): 75 MFI; MFI (HLA-Cw*1502 (human)): 86 MFI; MFI (HLA-Cw*0702 (human)): 137 MFI; MFI (HLA-Cw*0501 (human)): 147 MFI; MFI (HLA-B*4402 (human)): 66 MFI; MFI (HLA-B*4701 (human)): 67 MFI; MFI (HLA-B*5201 (human)): 87 MFI; MFI (HLA-Cw*0302 (human)): 1360 MFI; MFI (HLA-Cw*0801 (human)): 3340 MFI; MFI (HLA-Cw*1802 (human) [1]): 7040 MFI; MFI (HLA-Cw*1701 (human)): 676 MFI; MFI (HLA-B*4002 (human)): 655 MFI; MFI (HLA-B*0801 (human)): 262 MFI; MFI (HLA-Cw*1402 (human)): 803 MFI; MFI (HLA-B*1402 (human)): 517 MFI; MFI (HLA-B*1801 (human)): 777 MFI; MFI (HLA-B*2708 (human)): 417 MFI; MFI (HLA-B*5801 (human)): 938 MFI; MFI (HLA-B*5101 (human)): 483 MFI; MFI (HLA-B*3701 (human)): 784 MFI; MFI (HLA-Cw*1802 (human) [2]): 3810 MFI

Q: murine monoclonal antibody MAb MEM-E/02 was tested. Which MEM-E/02 Reactivity Rank (HLA-B*6701 (B67) (human)) did it give?
A: > 65 rank

Q: What about the MEM-E/02 Reactivity Rank [3] of the same substance?
A: 28 rank

Q: And the MEM-E/02 Reactivity Rank (HLA-A*2501 (A25) (human))?
A: > 65 rank

Q: What about the MEM-E/02 Reactivity Rank (HLA-B*5001 (B50) (human)) of the same substance?
A: > 65 rank

Q: And the MEM-E/02 Reactivity Rank (HLA-B*1801 (B18) (human))?
A: 36 rank

Q: What about the MEM-E/02 Reactivity Rank [4] of the same substance?
A: 36 rank

Q: What about the MEM-E/02 Reactivity Rank (HLA-B*1401 (B64) (human)) of the same substance?
A: 7 rank

Q: What about the MEM-E/02 Reactivity Rank (HLA-A*2601 (A26) (human)) of the same substance?
A: 60 rank

Q: And the MEM-E/02 Reactivity Rank (HLA-A*3201 (A32) (human))?
A: > 65 rank

Q: And the MEM-E/02 Reactivity Rank (HLA-B*1516 (B63) (human))?
A: 43 rank

Q: And the MEM-E/02 Reactivity Rank (HLA-A*2403 (A24) (human))?
A: 63 rank

Q: And the MEM-E/02 Reactivity Rank (HLA-B*4403 (B44) (human))?
A: > 65 rank

Q: And the MEM-E/02 Reactivity Rank [5]?
A: > 65 rank

Q: And the MEM-E/02 Reactivity Rank [6]?
A: > 65 rank

Q: And the MEM-E/02 Reactivity Rank [7]?
A: 8 rank

Q: And the MEM-E/02 Reactivity Rank (HLA-B*0801 (B8) (human))?
A: > 65 rank

Q: And the MEM-E/02 Reactivity Rank (HLA-A*2901 (A29) (human))?
A: 48 rank

Q: What about the MEM-E/02 Reactivity Rank (HLA-B*2708 (B27) (human)) of the same substance?
A: > 65 rank

Q: And the MEM-E/02 Reactivity Rank (HLA-B*3801 (B38) (human))?
A: > 65 rank

Q: And the MEM-E/02 Reactivity Rank (HLA-B*5901 (B59) (human))?
A: 20 rank

Q: What about the MEM-E/02 Reactivity Rank (HLA-B*1513 (B77) (human)) of the same substance?
A: 41 rank
